This note sets out measurements from the Immune Epitope Database (IEDB).

The target of experiment [1] is HLA-A*03:01. Nature of the experiment: IEDB peptide-MHC binding, purified MHC/competitive/radioactivity; filed as Kd, often an IC50 or EC50 that approximates it; ≥ and ≤ were set here for values at or beyond the usual limits of such assays.
In experiment [2] the target is HLA-A*11:01. The experiment is described as above. To be noted: source organism: Vaccinia virus WR.
Experiment [3] concerns the target HLA-A*30:01. The experiment is described as above.
Experiment [4] deals with HLA-A*31:01. Described as above. The conditions noted are these: source organism: Vaccinia virus WR.
Experiment [5] concerns the target HLA-A*33:01. The description is as above. To be noted: source organism: Vaccinia virus WR.
The target in experiment [6] is HLA-A*68:01. The experiment is described as above.
In experiment [7] the target is HLA-A*02:06. The experiment is described as above.
The target in experiment [8] is HLA-A*02:01. Nature of the experiment: IEDB peptide-MHC binding, purified MHC/direct/fluorescence; filed as Kd, often an IC50 or EC50 that approximates it; ≥ and ≤ were set here for values at or beyond the usual limits of such assays.
The target in experiment [9] is HLA-A*69:01. The description is as above.
For experiment [10], the target named is HLA-A*02:02. Kind of experiment: IEDB peptide-MHC binding, purified MHC/competitive/radioactivity; filed as Kd, often an IC50 or EC50 that approximates it; ≥ and ≤ were set here for values at or beyond the usual limits of such assays.
The target in experiment [11] is HLA-A*02:03. Described as above.
Setting [12] is: source organism: Vaccinia virus WR.
Where [13] appears, read: source organism: Dengue virus 1 Singapore/S275/1990.
Setting [14] is: source organism: Dengue virus 1 Brazil/97-11/1997.
Setting [15] is: source organism: Entamoeba histolytica HM-1:IMSS.
The mark [16] stands for this setting: source organism: Dengue virus 2 Jamaica/1409/1983.
Setting [17] is: source organism: Mammarenavirus brazilense.
[18] abbreviates: source organism: Mammarenavirus whitewaterense.
[19] abbreviates: source organism: Dengue virus 3 Martinique/1243/1999.
The mark [20] stands for this setting: source organism: Listeria monocytogenes.
Where [21] appears, read: source organism: SARS coronavirus Tor2.

Consider RTKLMSNIK, for which the Kd (as a rule, the constant that tells how readily two partners part at equilibrium) in experiment [1] (setting [12]) was 0.0236 µM; in experiment [2], 0.0294 µM; in experiment [3] (setting [12]) it was 0.00038 µM; in [4], 0.00449 µM; in [5], at least 56.8 µM; in experiment [6] (setting [12]) it was 0.778 µM.
Regarding ASKFVYVSV, the Kd in [3] (setting [12]) was 0.00309 µM.
Take INRFTMRHK: the Kd in [3] (source organism: Dengue virus 2 Peru/IQT2913/1996) was 1.11 µM.
For the sequence AVKSEHTGK, the Kd in [3] (setting [13]) turned out to be 0.0643 µM.
With KFRPLMIFM, in experiment [3] (setting [12]), the Kd is 0.0018 µM.
For the sequence MGRFGYVPY, the Kd in experiment [3] (setting [12]) came out at 0.0148 µM.
In the case of SQKTTWLPV, the figures for the Kd in experiment [7] (setting [14]) and in experiment [3] (setting [14]) were 0.175 µM and 0.0151 µM, respectively.
With KQLEWKWGI, the figures for the Kd in [8] (setting [15]) and in experiment [9] (setting [15]) were 0.0007 µM and 0.0232 µM, respectively.
Regarding KAKWLTPFE, the Kd in experiment [3] (setting [12]) worked out at 0.667 µM.
On to NVGRILGYV, for which the values for the Kd in experiment [8] (setting [15]) and in experiment [9] (setting [15]) were 0.146 µM and 0.0037 µM, respectively.
Regarding MTFGDIPLV, in [3] (setting [12]), the Kd amounted to 0.235 µM.
Turning to MRRERAAYV, in experiment [3] (setting [12]), the Kd amounted to 0.0218 µM.
Take KIKAGPRYV: the Kd in [3] (setting [12]) was found to be 0.00693 µM.
Regarding DVGCLLTDTI, the dissociation constant (Kd) in experiment [10] (setting [12]) is 10.7 µM; in experiment [11] (setting [12]) it was 15.6 µM; in experiment [7] (setting [12]) it was 9.99 µM.
LALLAAFKVR: in experiment [3] (setting [16]), the Kd was found to be 0.0748 µM.
With QMDGAILVV, the Kd in experiment [9] (source organism: Brucella abortus 2308) turned out to be 3.45 µM.
Consider LRFLTIPPTA, for which the dissociation constant (Kd) in [3] (setting [16]) was 0.951 µM.
With VMRSRWSRK, the equilibrium dissociation constant (Kd) in experiment [1] (setting [14]) amounted to 0.00486 µM; in [3] (setting [14]), 0.0108 µM.
LRYFIMAYV: the dissociation constant (Kd) is 0.213 µM in experiment [10] (setting [17]), 0.395 µM in experiment [11] (setting [17]) and at least 20.1 µM in [7] (setting [17]).
Regarding DTSPTKRCRL, the dissociation constant (Kd) is 12.2 µM in [10] (setting [12]), at least 37.1 µM in experiment [11] (setting [12]) and at least 44.7 µM in [7] (setting [12]).
For the sequence FLLRGPFEAS, the dissociation constant (Kd) stood at 0.0271 µM in experiment [10] (setting [18]), 0.0835 µM in [11] (setting [18]) and 0.0703 µM in experiment [7] (setting [18]).
LTSVDIETA: the Kd in experiment [10] (setting [12]) is 4.92 µM; in experiment [11] (setting [12]), 11.5 µM; in experiment [7] (setting [12]) it was 0.311 µM.
For the sequence LMLHNPTSET, the results for the Kd in [10] (setting [12]), in [11] (setting [12]) and in experiment [7] (setting [12]) were at least 39.3 µM, 4.48 µM and 11.1 µM, respectively.
Turning to YVILKDPRI, the Kd came to 1.55 µM in experiment [10] (setting [12]), 0.203 µM in [11] (setting [12]) and 0.0117 µM in experiment [7] (setting [12]).
Take KAKRGTAQI: in experiment [3] (setting [13]), the Kd is 0.289 µM.
With LTSNCTRTT, the Kd in [10] (setting [12]) is at least 77.8 µM; in experiment [11] (setting [12]) it was at least 29.6 µM; in experiment [7] (setting [12]) it was at least 40.4 µM.
SLLRNDVPMA: the Kd in [3] (setting [19]) came out at 2.48 µM.
As to KVKKRYPEF, the Kd in [3] (setting [12]) was determined as 0.103 µM.
Regarding FLTGTFVTA, the Kd in experiment [10] (setting [12]) turned out to be 0.00469 µM; in experiment [11] (setting [12]) it was 0.000712 µM; in experiment [7] (setting [12]), 0.00205 µM.
For the sequence GLYEWISEQ, the Kd in [8] (setting [20]) was 0.177 µM; in [9] (setting [20]), at least 20 µM.
Sequence FLHGGDFGV had a Kd in [9] (source organism: Mycobacterium tuberculosis) of 0.691 µM.
With KIKQTGINNV, the Kd in experiment [10] (setting [12]) was determined as 0.237 µM; in experiment [11] (setting [12]) it was 0.00312 µM; in experiment [7] (setting [12]), 2.55 µM.
On the same counts, the results for GILIYDDNI are 11.7 µM, 1.7 µM and 13.3 µM.
FLYGWLFIL: in experiment [8] (source organism: Francisella tularensis subsp. tularensis), the Kd amounted to 0.102 µM.
As to RARNRVSTG, the Kd in experiment [3] (setting [14]) came out at 0.18 µM.
On to VCFWSTLFYV, for which the Kd amounted to 0.348 µM in experiment [10] (setting [18]), 7.01 µM in [11] (setting [18]) and 1.13 µM in [7] (setting [18]).
Take IALCKVTVPT: the Kd in experiment [10] (setting [12]) is 1.95 µM; in [11] (setting [12]) it was 2.22 µM; in experiment [7] (setting [12]), 0.652 µM.
Take LAAVSVSPLL: in experiment [3] (setting [16]), the Kd was 6.02 µM.
Turning to TVEFDRDKVV, the Kd in experiment [10] (setting [12]) is 16.2 µM; in experiment [11] (setting [12]), 1.6 µM; in experiment [7] (setting [12]), at least 30.8 µM.
On to RLKRMAISG, for which, in [3] (setting [14]), the Kd was 0.138 µM.
As for CVMYASALV, the Kd in experiment [10] (setting [21]) is 0.00448 µM; in experiment [11] (setting [21]), 0.00294 µM; in experiment [7] (setting [21]) it was 0.00736 µM.
With ILQMREIIT, the dissociation constant Kd came to 4.1 µM in experiment [10] (setting [12]), 1.34 µM in [11] (setting [12]) and 1.23 µM in [7] (setting [12]).
On to ESRTIRVLK, for which the Kd in experiment [3] (setting [19]) is 0.00881 µM; in [6] (setting [19]), 0.237 µM.
Turning to KSHTLWSNG, the dissociation constant Kd in experiment [3] (setting [16]) was 0.425 µM.
